Reference: patent US20150361464A1, “METHODS, REAGENTS AND CELLS FOR BIOSYNTHESIZING COMPOUNDS” (INVISTA North America S.á r.l., priority 2014, published 2015)

Test: ω-transaminase enzyme activity assay, forward direction (glutarate semialdehyde to 5-aminopentanoate), cell free extract
Type: biochemical
Procedure: A nucleotide sequence encoding an N-terminal His-tag was added to the genes from Chromobacterium violaceum and Rhodobacter sphaeroides encoding the ω-transaminases of SEQ ID NOs: 8 and 10 respectively (see FIG. 10) such that N-terminal HIS tagged ω-transaminases could be produced. Each of the resulting modified genes was cloned into a pET21a expression vector under control of the T7 promoter and each expression vector was transformed into a BL21[DE3] E. coli host. The resulting recombinant E. coli strains were cultivated at 37° C. in a 250 mL shake flask culture containing 50 mL LB media and antibiotic selection pressure, with shaking at 230 rpm. Each culture was induced overnight at 16° C. using 1 mM IPTG.
The pellet from each induced shake flask culture was harvested via centrifugation. Each pellet was resuspended and lysed via sonication. The cell debris was separated from the supernatant via centrifugation and the cell free extract was used immediately in enzyme activity assays.
Enzyme activity in the forward direction (i.e., glutarate semialdehyde to 5-aminopentanoate) was confirmed for the transaminase of SEQ ID NO: 10. Enzyme activity assays were performed in a buffer composed of a final concentration of 50 mM HEPES buffer (pH=7.5), 10 mM glutarate semialdehyde, 10 mM L-alanine and 100 μM pyridoxyl 5′ phosphate. Each enzyme activity assay reaction was initiated by adding a cell free extract of the ω-transaminase gene product or the empty vector control to the assay buffer containing the glutarate semialdehyde and incubated at 25° C. for 4 hours, with shaking at 250 rpm. The formation of pyruvate was quantified via RP-HPLC.

B1: SEQ ID NO: 10: Pseudomonas syringae ω-transaminase (b222 says Rhodobacter sphaeroides), N-terminal HIS tagged, cell free extract (protein, listed as Pseudomonas syringae)
chain: MSANNPQTLEWQALSSEHHLAPFSDYKQLKEKGPRIITRAEGVYLWDSEGNKILDGMSGLWCVAIGYGREELADAASKQMRELPYYNLFFQTAHPPVLELAKAISDIAPEGMNHVFFTGSGSEGNDTMLRMVRHYWALKGQPNKKTIISRVNGYHGSTVAGASLGGMTYMHEQGDLPIPGVVHIPQPYWFGEGGDMTPDEFGIWAAEQLEKKILELGVENVGAFIAEPIQGAGGVIVPPDSYWPKIKEILSRYDILFAADEVICGFGRTSEWFGSDFYGLRPDMMTIAKGLTSGYVPMGGLIVRDEIVAVLNEGGDFNHGFTYSGHPVAAAVALENIRILREEKIVERVRSETAPYLQKRLRELSDHPLVGEVRGVGLLGAIELVKDKTTRERYTDKGAGMICRTFCFDNGLIMRAVGDTMIIAPPLVISFAQIDELVEKARTCLDLTLAVLQG
modifications: N-terminal His tag
Q: For B1, which “acceptance of glutarate semialdehyde as substrate (formation of pyruvate from L-alanine, RP-HPLC)” value (10 mM glutarate semialdehyde, 10 mM L-alanine, pH 7.5, 25° C., 4 hours, against the empty vector control, FIG. 16) is on record?
A: accepted glutarate semialdehyde as substrate

Q: What about the “acceptance of glutarate semialdehyde as substrate and synthesis of 5-aminopentanoate, concluded from reversibility of the ω-transaminase activity” value (conclusion from reverse and forward direction assays) of the same molecule?
A: accepted glutarate semialdehyde as substrate and synthesized 5-aminopentanoate
